The values below come from patent US20230391872A1 (ANAPTYSBIO, published 2023).

The target of experiment [1] is T1, cynomolgus monkey BTLA on cells (stably transfected 293c18 clone 1G5); cynomolgus peripheral blood T and B … (cynomolgus monkey, UniProt A0A2K5W7M7 31-289).
T1 construct: whole, on cells; also called cynomolgus monkey BTLA 293c18 cells
T1 sequence: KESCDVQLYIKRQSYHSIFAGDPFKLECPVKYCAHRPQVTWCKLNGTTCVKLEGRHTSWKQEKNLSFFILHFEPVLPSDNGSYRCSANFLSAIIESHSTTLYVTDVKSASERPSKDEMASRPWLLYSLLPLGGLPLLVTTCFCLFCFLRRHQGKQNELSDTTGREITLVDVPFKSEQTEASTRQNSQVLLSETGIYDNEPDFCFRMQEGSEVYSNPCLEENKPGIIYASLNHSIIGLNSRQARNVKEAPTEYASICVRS
The experiment can be described thus: flow cytometry, AF647-labeled 6G3 IgG4 on cynomolgus monkey peripheral blood CD3+ T cells; not saturated at 100 nM. The procedure: Blood was then aliquoted into wells and incubated with the indicated concentrations of 6G3-AF647 (APE13766.02), or APC-Mouse Anti-Human CD272 (BTLA) reference antibody (clone J168-540; BD Biosciences) for minutes at room temperature, in the dark. Following incubation, red blood cells were lysed for minutes by addition of 2.0 ml diluted BD Pharm Lyse lysing solution (BD Biosciences), samples centrifuged at 200×g for 5 minutes, washed in FACS Buffer [Dulbecco's PBS, no calcium, no magnesium (Gibco/ThermoFisher Scientific), 25 mM HEPES, pH 7.2, 0.1% BSA, sodium azide] and fixed in 4% paraformaldehyde (200 μl/sample) for 10 minutes at room temperature. Samples were washed twice in FACS Buffer and analyzed for fluorescence on a NovoCyte Quanteon flow cytometer (ACEA Biosciences, Inc.). Data were analyzed using NovoExpress Software (ACEA Biosciences, Inc.). Mean fluorescence intensity (MFI) values were graphed and fit with nonlinear regression analyses in GraphPad Prism (GraphPad Software, Inc.). MFI values for each anti-BTLA antibody on total CD3+cells are shown in FIG. 5A; MFI values for each anti-BTLA antibody on total CD20+cells are shown in FIG. 5B. […] Binding of each anti-BTLA antibody to CD3⁻ cells in FIG. 5C and FIG. 5D (green cells in the bottom quadrants of each panel) reflects the binding to CD20⁺ B cells. […]
A general note: A flow cytometer gives signals particle by particle.

Experiment [2] deals with T2, cynomolgus monkey BTLA ECD-his (monomeric cynomolgus monkey BTLA-his) (cynomolgus monkey, UniProt A0A2K5W7M7 31-157).
T2 construct: extracellular domain; also called cynomolgus monkey BTLA extracellular domain
T2 sequence: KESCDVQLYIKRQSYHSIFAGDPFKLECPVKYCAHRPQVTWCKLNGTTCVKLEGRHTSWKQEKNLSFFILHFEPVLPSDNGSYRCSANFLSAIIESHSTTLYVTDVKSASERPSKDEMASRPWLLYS
Briefly: SPR, Biacore T200, antibody captured on anti-human IgG, monomeric cynomolgus monkey BTLA-his as analyte, 25 °C, 1:1 model; 6G3 IgG4 (APE10840.05) captured on the chip; cynomolgus BTLA-his analyte. The procedure: Surface plasmon resonance (SPR) analyses were carried out using a Biacore T200 (GE Healthcare Life Sciences). Kinetic constants were determined using a 1:1 binding model in the Biacore T200 Evaluation Software to calculate on- and off-rates (kₐ and kd, respectively), and dissociation constants as a measure of overall affinity (KD). Anti-human IgG (GE Healthcare Life Sciences) was immobilized on a CMS chip using EDC-activated amine coupling chemistry (420 seconds contact at a flow rate of 10 μl/min). Antibodies (APE10585.04 6G3 IgG1 and APE10840.05 6G3 IgG4), each at 0.5 μg/m1) were captured in a 60 second contact with the flow cell using a flow rate of 10 μl/min. Monomeric human BTLA-his or cynomolgus monkey BTLA-his at 60 nM, 20 nM, 6.7 nM and 2.2 nM concentrations was flowed over captured antibody (480 seconds association, 1800 seconds dissociation). Runs were at 25° C. and used buffer containing 10 mM HEPES, pH 7.6, 150 mM NaCl, 3 mM EDTA, 0.05% polysorbate 20 (HBS-EP+, pH 7.6; Teknova) for the mobile phase and all dilutions. At the end of each cycle, bound antigen was removed by regeneration with two successive exposures (60 seconds and 90 seconds) to 3 M MgCl2 (30 μl/min). Sensorgrams and binding constants corresponding to the experiment are shown in FIG. 1 (human BTLA) and FIG. 1 (cynomolgus monkey BTLA). […]

Experiment [3] concerns the target T3, human BTLA ECD-his (monomeric human BTLA-his) (human, UniProt Q7Z6A9 31-157).
T3 construct: extracellular domain; also called human BTLA extracellular domain
T3 sequence (looked up): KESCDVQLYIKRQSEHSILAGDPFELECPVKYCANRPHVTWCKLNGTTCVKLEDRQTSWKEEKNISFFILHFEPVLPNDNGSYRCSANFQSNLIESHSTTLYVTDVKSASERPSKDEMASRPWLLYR
The experiment can be described thus: SPR (Biacore T200), antibody captured on anti-human IgG chip, monomeric BTLA-his flowed at 60, 20, 6.7 and 2.2 nM, 1:1 binding model, 25 C [upper right panel (Hu BTLA]. The procedure:
Surface plasmon resonance (SPR) analyses were carried out using a Biacore T200 (GE Healthcare Life Sciences). Kinetic constants were determined using a 1:1 binding model in the Biacore T200 Evaluation Software to calculate on- and off-rates (kₐ and kd, respectively), and dissociation constants as a measure of overall affinity (KD). Anti-human IgG (GE Healthcare Life Sciences) was immobilized on a CMS chip using EDC-activated amine coupling chemistry (420 seconds contact at a flow rate of 10 μl/min). Antibodies (APE10585.04 6G3 IgG1 and APE10840.05 6G3 IgG4), each at 0.5 μg/m1) were captured in a 60 second contact with the flow cell using a flow rate of 10 μl/min. Monomeric human BTLA-his or cynomolgus monkey BTLA-his at 60 nM, 20 nM, 6.7 nM and 2.2 nM concentrations was flowed over captured antibody (480 seconds association, 1800 seconds dissociation). Runs were at 25° C. and used buffer containing 10 mM HEPES, pH 7.6, 150 mM NaCl, 3 mM EDTA, 0.05% polysorbate 20 (HBS-EP+, pH 7.6; Teknova) for the mobile phase and all dilutions. At the end of each cycle, bound antigen was removed by regeneration with two successive exposures (60 seconds and 90 seconds) to 3 M MgCl2 (30 μl/min). Sensorgrams and binding constants corresponding to the experiment are shown in FIG. 1 (human BTLA) and FIG. 1 (cynomolgus monkey BTLA). Antibody capture levels in resonance units (RU) are listed at the right side of each panel.
(In SPR one partner is held on a chip, and binding of the other changes the refractive index at the surface.)

B1: 6G3 IgG4 anti-BTLA antibody (APE10840 / APE12839 / APE13308) (antibody, V domains shown)
VH: QVQLVQSGAEVKKPGSSVKVSCKASGYVFSTSWMNWVRQAPGQGLEWMGRIYPGDADTNYVGKFKGRVTITADKSTTTAYMELSSLRSEDTAVYFCAKSGTFNFGNYRWYFDVWGKGTTVTVSS
VL: AIQLTQSPSSLSASVGDRVTITCRVSENIYSHLAWYQQKPGKAPKLLIYAATNLALGVPSRFSGSGSGTDYTLTISSLQPEDFATYYCQLFWGPPLTFGGGTKVEIKR
notes: Humanized antibody from a mouse hybridoma, tested as human IgG4 (detected with anti-human kappa); Some assays used labelled lots (DyLight 650, AF647, biotin, DyL488); also called 6G3 antibody; APE10840.03
For the molecule B1, in experiment [1], the EC50 was approximately 3.4 nM. Also, the Kd in experiment [2] is approximately 11 nM. Besides, in experiment [3], the Kd worked out at 5.35 nM, the koff was determined as 0.0003 s⁻¹ and the kon worked out at 56200 M⁻¹ s⁻¹.

As usually defined, the EC50 is the midpoint of the concentration-response curve. By Kd is commonly meant the constant that tells how readily two partners part at equilibrium. As a reminder, the koff is the first-order rate constant of dissociation. One may read the kon as the rate constant with which the complex forms.
